The chains are these.
B1: glmS ribozyme (parent)
chain: AUAAAAGCGCCAGAACUACAGAAAUGUAGUUGACGAGGAGGAGGUUUAUCGAAUUUUCGGCGGAUGCCUCCAAA

± gives the standard error. Variants at the floor of the assay were thinned out.

Conditions in all cases: with glucosamine-6-phosphate
Variants of B1 are the subject of data set [1]. The data set can be described thus: self-cleavage kobs at 640 uM GlcN6P; higher = faster cleavage; RNA array. The procedure, abridged:
(§1)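 E. coli RNA polymerase transcribed barcoded ribozyme variants in situ on sequenced MiSeq chips, which were tracked via a hybridised Cy3 probe at 37 °C. Tiles were imaged over ~14 h after glucosamine-6-phosphate (40 μM to 10 mM) in HEPES/KCl/Mg(OAc)2 buffer was flowed in. Normalised per-tile medians were fit to one- or two-exponential decays for kobs, and kcat and KM came from weighted Michaelis–Menten fits.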

Variants of B1 are the subject of data set [2]. Nature of the data set: self-cleavage kobs at 2500 uM GlcN6P; higher = faster cleavage; RNA array. The procedure, abridged: as §1
In data set [3] the parent is B1. The data set can be described thus: self-cleavage kobs at 10000 uM GlcN6P; higher = faster cleavage; RNA array. The gist of the method:
as §1

For A15G A48U U54A, the “self-cleavage kobs at 640 uM GlcN6P” value in data set [1] was found to be 0.000159 ± 3.2e-05 s⁻¹. The “self-cleavage kobs at 2500 uM GlcN6P” value in data set [2] stood at 0.000106 ± 4.2e-05 s⁻¹.
With A15G U54A G66C, the “self-cleavage kobs at 640 uM GlcN6P” value in data set [1] was found to be 0.000369 ± 9e-05 s⁻¹. The “self-cleavage kobs at 2500 uM GlcN6P” value in data set [2] was determined as 0.000502 ± 9.7e-05 s⁻¹.
Turning to C58G A64C C67U, the “self-cleavage kobs at 640 uM GlcN6P” value in data set [1] amounted to 7.21e-05 ± 2e-05 s⁻¹.
On the same count and under the same terms, for G29U G32A G44A A64U the value was under 1e-05 s⁻¹.
Take A39C G60U G66U: the “self-cleavage kobs at 640 uM GlcN6P” value in data set [1] was under 1e-05 s⁻¹. Further, in data set [2], the “self-cleavage kobs at 2500 uM GlcN6P” value was under 1e-05 s⁻¹.
In the case of G9U C11U U30G, the “self-cleavage kobs at 640 uM GlcN6P” value in data set [1] is under 1e-05 s⁻¹.
For C8A U54C A64C, the “self-cleavage kobs at 640 uM GlcN6P” value in data set [1] is under 1e-05 s⁻¹. For the same variant, the “self-cleavage kobs at 2500 uM GlcN6P” value in data set [2] is under 1e-05 s⁻¹.
Turning to G29U A53C, the “self-cleavage kobs at 640 uM GlcN6P” value in data set [1] was 0.00015 ± 7.4e-05 s⁻¹. In addition, the “self-cleavage kobs at 2500 uM GlcN6P” value in data set [2] was found to be 0.00118 ± 0.00032 s⁻¹. The “self-cleavage kobs at 10000 uM GlcN6P” value in data set [3] was 0.000874 ± 0.00028 s⁻¹.
For G35C G37U, the “self-cleavage kobs at 640 uM GlcN6P” value in data set [1] is under 1e-05 s⁻¹.
On to A14C C58A C67A C68G, for which the “self-cleavage kobs at 640 uM GlcN6P” value in data set [1] is 5.61e-05 ± 2.2e-05 s⁻¹. Further, the “self-cleavage kobs at 2500 uM GlcN6P” value in data set [2] worked out at 4.77e-05 ± 1.6e-05 s⁻¹.
For the variant G32U A33U U45A, the “self-cleavage kobs at 640 uM GlcN6P” value in data set [1] was under 1e-05 s⁻¹.
On the same count and under the same terms, in the case of A33G G60C C68G it was under 1e-05 s⁻¹; in that of G41A U65C, under 1e-05 s⁻¹.
Consider A12U G37A U56G, for which the “self-cleavage kobs at 640 uM GlcN6P” value in data set [1] is 0.00137 ± 0.00022 s⁻¹. The “self-cleavage kobs at 2500 uM GlcN6P” value in data set [2] was 0.00379 ± 0.00089 s⁻¹.
As for U45G C50U C70U, in data set [1], the “self-cleavage kobs at 640 uM GlcN6P” value was under 1e-05 s⁻¹.
With A6G G41C A42C, the “self-cleavage kobs at 640 uM GlcN6P” value in data set [1] is under 1e-05 s⁻¹. Moreover, the “self-cleavage kobs at 2500 uM GlcN6P” value in data set [2] is under 1e-05 s⁻¹.
For the variant G29C A42C A48C, in data set [1], the “self-cleavage kobs at 640 uM GlcN6P” value was under 1e-05 s⁻¹.
Regarding U31C G32A U65G, the “self-cleavage kobs at 640 uM GlcN6P” value in data set [1] was 5.75e-05 ± 1.9e-05 s⁻¹. Further, in data set [2], the “self-cleavage kobs at 2500 uM GlcN6P” value was found to be 0.000133 ± 3.3e-05 s⁻¹.
On the same counts, the results for G38C U45C C70A are under 1e-05 s⁻¹ and under 1e-05 s⁻¹.
G44U G62U C68A: the “self-cleavage kobs at 640 uM GlcN6P” value in data set [1] was under 1e-05 s⁻¹. In addition, in data set [2], the “self-cleavage kobs at 2500 uM GlcN6P” value is under 1e-05 s⁻¹.
For G32C G40C U57G, in data set [1], the “self-cleavage kobs at 640 uM GlcN6P” value is under 1e-05 s⁻¹.
Take A12G C34G U47C: the “self-cleavage kobs at 640 uM GlcN6P” value in data set [1] is under 1e-05 s⁻¹.
As to A12U C67U C71G, the “self-cleavage kobs at 640 uM GlcN6P” value in data set [1] is 7.19e-05 ± 2.7e-05 s⁻¹. In addition, the “self-cleavage kobs at 2500 uM GlcN6P” value in data set [2] is 6.07e-05 ± 1.3e-05 s⁻¹. Further, the “self-cleavage kobs at 10000 uM GlcN6P” value in data set [3] amounted to 4.02e-05 ± 2e-05 s⁻¹.
For C8A G9C G29C G35U, the “self-cleavage kobs at 640 uM GlcN6P” value in data set [1] is under 1e-05 s⁻¹. The “self-cleavage kobs at 2500 uM GlcN6P” value in data set [2] is under 1e-05 s⁻¹.
In the case of A36U U46C U49A C68G, in data set [1], the “self-cleavage kobs at 640 uM GlcN6P” value was under 1e-05 s⁻¹.
Consider A15G C16A U30C, for which the “self-cleavage kobs at 640 uM GlcN6P” value in data set [1] was determined as 0.000332 ± 0.00012 s⁻¹. Further, the “self-cleavage kobs at 2500 uM GlcN6P” value in data set [2] was 0.00063 ± 0.00023 s⁻¹.
Consider G9C A33U C34G U56A, for which the “self-cleavage kobs at 640 uM GlcN6P” value in data set [1] is under 1e-05 s⁻¹.
Same read-out and setting: in the case of C8U A14U U57C G59U it was under 1e-05 s⁻¹.
With U30G A39G G41U A48G U69C, the “self-cleavage kobs at 640 uM GlcN6P” value in data set [1] was under 1e-05 s⁻¹. The “self-cleavage kobs at 2500 uM GlcN6P” value in data set [2] is under 1e-05 s⁻¹. Also, the “self-cleavage kobs at 10000 uM GlcN6P” value in data set [3] was under 1e-05 s⁻¹.
As to C50U A53U C70G, the “self-cleavage kobs at 640 uM GlcN6P” value in data set [1] turned out to be 5.27e-05 ± 2.4e-05 s⁻¹.
Same read-out and setting: in the case of G44U U46A A53U C70G it was under 1e-05 s⁻¹.
As to G7C G9C, in data set [1], the “self-cleavage kobs at 640 uM GlcN6P” value is under 1e-05 s⁻¹. Besides, the “self-cleavage kobs at 2500 uM GlcN6P” value in data set [2] was under 1e-05 s⁻¹.
In the case of G7A U31G C67U, the “self-cleavage kobs at 640 uM GlcN6P” value in data set [1] is under 1e-05 s⁻¹.

(Values after the supplement of paper PMC7125110.)
